Measurements: patent US20060275803A1, “Rat and mouse members of the CRISP family of genes” (Wyeth, priority 2005, published 2006)

Molecular target: T1, rCRISPA (rCRISP1) (Rattus norvegicus, UniProt P12020)
T1 construct: Native rCRISPA (rCRISP1) protein, purified with DANA present; from tissue; host or cells: rat epididymis
T1 sequence (P12020 20-246): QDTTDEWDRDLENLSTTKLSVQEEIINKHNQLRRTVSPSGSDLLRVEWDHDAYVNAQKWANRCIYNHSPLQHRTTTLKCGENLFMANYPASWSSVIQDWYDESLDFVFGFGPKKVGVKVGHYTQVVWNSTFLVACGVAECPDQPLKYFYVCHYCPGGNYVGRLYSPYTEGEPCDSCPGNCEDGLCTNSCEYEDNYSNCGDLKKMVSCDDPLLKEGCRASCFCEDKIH
Experiment: Protease activity screen: cleavage of substrate peptides by native rCRISPA (+DANA protocol), measured by fluorescence
Type: biochemical
Settings: 5 μM substrate peptide, 1 μg enzyme, 100 mM NaCl, 25 mM Tris-Cl, pH 7.5; fluorescence at ten minute intervals for 130 minutes; FIG. 13
Experimental: FIG. 13 is a graph showing rCRISPA (rCRISP1) protease activity (assay conditions: 5 μM substrate peptide, 1 μg enzyme, 100 mM NaCl, 25 mM Tris-Cl, pH 7.5). A. Cleaved peptides A04 (RGARARLG), N08 (RKRRAPLA), N12 (AKRAASQI), N17 (RKRRAVLT), B22 (APQRFGKK), B17 (RQRYGKRS), B23 (RVKRYRQS), H03 (RNKRAVQG). B. Cleaved peptides B20 (PQRFGRNT), C16 (RVLGLKAH), J21 (LRNRAQSG), H07 (RVKRQVRS), H11 (RRLLRAIP), N05 (RARRELAP), H01 (RKKRSTKK), O22 (GGVRGPRV), O16 (AATRRQAV), O23 (KNVAMQKG), G24 (RRKRSTRE), A09 (RMRRYADA), M02 (EKQRIIGG), H17 (NGLRADPM). C. Uncleaved peptides L16 (KTPRWGG), N10 (FYRADQPR), B11 (AAGVAPLS), J03 (PQLHSTGG), C01 (GPQGLLGA), K11 (VIPRSGGS), M07 (GLQRALEI), A01 (WQGGRRKF), H02 (RAKRSVHF), A10 (SAARPAPP), M16 (RSRREADL), A05 (SYRKVLGQ), M18 (VHRDMAAR), C23 (RDAQAHPG), M09 (GSQHIRAE), E19 (RLGREGVQ), D06 (ALAEAMKK).
Native rCRISPA (rCRISP1) protein, purified with DANA present (see Example 4), was screened for the ability to cleave 360 unique peptides using the commercially available peptide substrate set (catalog # PrSS-360-75, JPT Peptide Technologies, Springfield, Va.). […] The substrate peptides cleaved by rCRISPA in this assay are represented by blue and green traces noted in FIG. 13. Peptides that were not cleaved by rCRISPA are also noted in FIG. 13.

Substance	cleavage of substrate peptide by rCRISPA (rCRISP1) protease activity
SAARPAPP [A10, substrate peptide of the commercial peptide substrate set PrSS-360-75, JPT Peptide Technologies]	Uncleaved
RVKRYRQS [B23, substrate peptide of the commercial peptide substrate set PrSS-360-75, JPT Peptide Technologies]	Cleaved
KTPRWGG [L16, substrate peptide of the commercial peptide substrate set PrSS-360-75, JPT Peptide Technologies]	Uncleaved
RMRRYADA [A09, substrate peptide of the commercial peptide substrate set PrSS-360-75, JPT Peptide Technologies]	Cleaved
RVLGLKAH [C16, substrate peptide of the commercial peptide substrate set PrSS-360-75, JPT Peptide Technologies]	Cleaved
PQRFGRNT [B20, substrate peptide of the commercial peptide substrate set PrSS-360-75, JPT Peptide Technologies]	Cleaved
VHRDMAAR [M18, substrate peptide of the commercial peptide substrate set PrSS-360-75, JPT Peptide Technologies]	Uncleaved
AATRRQAV [O16, substrate peptide of the commercial peptide substrate set PrSS-360-75, JPT Peptide Technologies]	Cleaved
APQRFGKK [B22, substrate peptide of the commercial peptide substrate set PrSS-360-75, JPT Peptide Technologies]	Cleaved
WQGGRRKF [A01, substrate peptide of the commercial peptide substrate set PrSS-360-75, JPT Peptide Technologies]	Uncleaved
RARRELAP [N05, substrate peptide of the commercial peptide substrate set PrSS-360-75, JPT Peptide Technologies]	Cleaved
RQRYGKRS [B17, substrate peptide of the commercial peptide substrate set PrSS-360-75, JPT Peptide Technologies]	Cleaved
RRLLRAIP [H11, substrate peptide of the commercial peptide substrate set PrSS-360-75, JPT Peptide Technologies]	Cleaved
RAKRSVHF [H02, substrate peptide of the commercial peptide substrate set PrSS-360-75, JPT Peptide Technologies]	Uncleaved
LRNRAQSG [J21, substrate peptide of the commercial peptide substrate set PrSS-360-75, JPT Peptide Technologies]	Cleaved
GSQHIRAE [M09, substrate peptide of the commercial peptide substrate set PrSS-360-75, JPT Peptide Technologies]	Uncleaved
RGARARLG [A04, substrate peptide of the commercial peptide substrate set PrSS-360-75, JPT Peptide Technologies]	Cleaved
ALAEAMKK [D06, substrate peptide of the commercial peptide substrate set PrSS-360-75, JPT Peptide Technologies]	Uncleaved
RDAQAHPG [C23, substrate peptide of the commercial peptide substrate set PrSS-360-75, JPT Peptide Technologies]	Uncleaved

Substance	cleavage of substrate peptide by rCRISPA (rCRISP1) protease activity
RKRRAVLT [N17, substrate peptide of the commercial peptide substrate set PrSS-360-75, JPT Peptide Technologies]	Cleaved
RLGREGVQ [E19, substrate peptide of the commercial peptide substrate set PrSS-360-75, JPT Peptide Technologies]	Uncleaved
RKKRSTKK [H01, substrate peptide of the commercial peptide substrate set PrSS-360-75, JPT Peptide Technologies]	Cleaved
RSRREADL [M16, substrate peptide of the commercial peptide substrate set PrSS-360-75, JPT Peptide Technologies]	Uncleaved
KNVAMQKG [O23, substrate peptide of the commercial peptide substrate set PrSS-360-75, JPT Peptide Technologies]	Cleaved
GLQRALEI [M07, substrate peptide of the commercial peptide substrate set PrSS-360-75, JPT Peptide Technologies]	Uncleaved
VIPRSGGS [K11, substrate peptide of the commercial peptide substrate set PrSS-360-75, JPT Peptide Technologies]	Uncleaved
RNKRAVQG [H03, substrate peptide of the commercial peptide substrate set PrSS-360-75, JPT Peptide Technologies]	Cleaved
EKQRIIGG [M02, substrate peptide of the commercial peptide substrate set PrSS-360-75, JPT Peptide Technologies]	Cleaved
NGLRADPM [H17, substrate peptide of the commercial peptide substrate set PrSS-360-75, JPT Peptide Technologies]	Cleaved
RVKRQVRS [H07, substrate peptide of the commercial peptide substrate set PrSS-360-75, JPT Peptide Technologies]	Cleaved
PQLHSTGG [J03, substrate peptide of the commercial peptide substrate set PrSS-360-75, JPT Peptide Technologies]	Uncleaved
AKRAASQI [N12, substrate peptide of the commercial peptide substrate set PrSS-360-75, JPT Peptide Technologies]	Cleaved
SYRKVLGQ [A05, substrate peptide of the commercial peptide substrate set PrSS-360-75, JPT Peptide Technologies]	Uncleaved
FYRADQPR [N10, substrate peptide of the commercial peptide substrate set PrSS-360-75, JPT Peptide Technologies]	Uncleaved
AAGVAPLS [B11, substrate peptide of the commercial peptide substrate set PrSS-360-75, JPT Peptide Technologies]	Uncleaved
RKRRAPLA [N08, substrate peptide of the commercial peptide substrate set PrSS-360-75, JPT Peptide Technologies]	Cleaved
GGVRGPRV [O22, substrate peptide of the commercial peptide substrate set PrSS-360-75, JPT Peptide Technologies]	Cleaved
